Test results: US20180141972

Tests used:
[1] = target: Spycatcher-WELQ-Tem1 fusion protein (Spycatcher followed by a SplB protease site with a P1' methionine and the lactamase Tem1) (UniProt P62593)
[2] = tested on: Spycatcher-WELQ-LSSmOrange fusion protein

SplB protease fused to Spytag
cleavage of the fusion protein to native Tem1 (gel, FIG. 3) [1]: this led to the cleavage of Tem1 at the first methionine | cleavage of the fusion protein to native LSSmOrange (gel, FIG. 4) [2]: A similar experiment with LSSmOrange replacing Tem1 yielded the same result
